The values below come from article PMC7761469.

The target of the assay is epidermal growth factor receptor (EGFR) (human (endogenous in LNCaP, DU145 and PC-3)) (UniProt P00533). The assay can be described thus: flow cytometry on cells.

As to targeted toxin EGF-PE40, the fold reduction of binding compared to EGF lay within 28.6 to 76.1 fold.
